Assay results: article PMC4803301

What was measured:
[1] = time course of secreted Rspo1, anti-myc blot; conditions: glycan lost; control: wild type
[2] = anti-myc blot of conditioned medium and lysate, HT1080; conditions: glycan lost; control: wild type
[3] = anti-myc blot of conditioned medium and lysate, HT1080-Rspo1-MH; conditions: glycan lost; control: siCtrl

B1: R-spondin1 (Rspo1): 2WA (protein)
parent chain: MRLGLCVVALVLSWTHLTISSRGIKGKRQRRISAEGSQACAKGCELCSEVNGCLKCSPKLFILLERNDIRQVGVCLPSCPPGYFDARNPDMNKCIKCKIEHCEACFSHNFCTKCKEGLYLHKGRCYPACPEGSSAANGTMECSSPAQCEMSEWSPWGPCSKKQQLCGFRRGSEERTRRVLHAPVGDHAACSDTKETRRCTVRRVPCPEGQKRRKGGQGRRENANRNLARKESKEAGAGSRRRKGQQQQQQQGTVGPLTSAGPA
expression_or_secretion [1]: decreases | expression_or_secretion [2]: decreases

B2: R-spondin1 (Rspo1): siDPY19L3#2 (protein)
parent chain: B1 parent chain
expression_or_secretion [3]: decreases

B3: R-spondin1 (Rspo1): siDPY19L3 (protein)
parent chain: B1 parent chain
expression_or_secretion [3]: decreases
